# Measurements reported in patent US20090118195A1, “Molecules Which Promote Hematopoiesis” (priority 2004, published 2009).
# *1 amine or outer side, *2 acyl side, *3 side chain or, on linkers, in order; H or OH if unused. Primed or numbered codes have the meaning given here. Where no end group is shown, it is not given here. [ ]: non-standard residue; d: D form. Als″ = residue of 5-aminolevulinic acid, O=C(CCC(=O)[*:2])CN[*:1]
# T1: EPO receptor (on TF-1 cells) (UniProt P19235 25-508, limits assumed)
# T1 sequence (looked up): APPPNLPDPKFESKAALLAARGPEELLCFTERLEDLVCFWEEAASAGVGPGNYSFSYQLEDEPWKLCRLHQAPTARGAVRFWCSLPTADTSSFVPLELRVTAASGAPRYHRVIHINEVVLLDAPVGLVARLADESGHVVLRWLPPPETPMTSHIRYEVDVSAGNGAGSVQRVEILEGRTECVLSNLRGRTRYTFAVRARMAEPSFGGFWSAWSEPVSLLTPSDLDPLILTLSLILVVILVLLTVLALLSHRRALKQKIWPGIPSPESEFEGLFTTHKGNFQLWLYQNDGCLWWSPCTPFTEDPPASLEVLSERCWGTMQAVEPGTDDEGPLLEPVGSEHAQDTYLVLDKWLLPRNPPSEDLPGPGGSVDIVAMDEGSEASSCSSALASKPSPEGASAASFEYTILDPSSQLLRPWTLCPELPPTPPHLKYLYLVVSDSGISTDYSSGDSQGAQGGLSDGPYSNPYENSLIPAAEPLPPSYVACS
# Target: T1, EPO receptor (on TF-1 cells)
# Assay: cell-based or functional assay
# Details: not given
row,Molecule,"EC50, TF-1 cell proliferation (MTT assay)"
1,GGTYSCHFGKLTWVCKPQGG [SEQ ID NO 4: GGTYSCHFGKLTWVCKPQGG],4.66 µM
2,GGTYSCHFGPLTWVCKKQGG,2.52 µM
3,GGTYSCHFGKLTWVCKKQGG [SEQ ID NO 2: GGTYSCHFGKLTWVCKKQGG],3.28 µM
4,GGTYSCHFAKLTWVCKKQGG,5.04 µM

# More lines, now with the values ahead:
row,"EC50, TF-1 cell proliferation (MTT assay)",Molecule
1,4.97 µM,GGTYSCHFGRLTWVCKKQGG [SEQ ID NO 6: GGTYSCHFGRLTWVCKKQGG]
2,5.26 µM,GGTYSCHF[Als″]LTWVCKPQGG (cysteine pairing not given here) [SEQ ID NO 7: GGTYSCHF-(Als)-LTWVCKPQGG]
3,5.16 µM,GGTYSCHFGRLTWVCKPQGG [SEQ ID NO 5: GGTYSCHFGRLTWVCKPQGG]
4,5 µM,GGTYSCHF[Als″]LTWVCKKQGG (cysteine pairing not given here) [SEQ ID NO 8: GGTYSCHF-(Als)-LTWVCKKQGG]

# System: TF-1 cells
# Assay: Proliferation assay with TF-1 cells by MTT (monomers)
# Format: cell-based
# Details: MTT-assay data, dose-response calculated with GraphPad
# Protocol: Proliferation assay with TF-1 cells by MTT
# TF-1 Cells in logarithmic growth phase (˜2.10^5-1.10^6 cells/ml; RPMI medium; 20% fetal calf serum; supplemented with Penicillin, streptomycin, L-Glutamine; 0.5 ng/ml Interleukin 3) are washed (centrifuge 5 min. 1500 rpm and resuspend in RPMI complete without IL3 at 500.000 cells/ml) and precultured before start of the assay for 24 h without IL-3. At the next day the cells are seeded in 24- or 96-well plates usually using at least 6 concentrations and 4 wells per concentration containing at least 10.000 cells/well per agent to be tested. Each experiment includes controls comprising recombinant EPO as a positive control agent and wells without addition of cytokine as negative control agent. Peptides and EPO-controls are prediluted in medium to the desired concentrations and added to the cells, starting a culture period of […] under standard culture conditions (37° C., 5% carbon dioxide in the gas phase, atmosphere saturated with water). Concentrations always refer to the final concentration of agent in the well during this 4-day culture period.
# At day 4, prior to start of the analysis, a dilution series of a known number of TF-1 cells is prepared in a number of wells (01250015000/10000120000150000 cells/well in 100 μl medium). These wells are treated in the same way as the test wells and later provide a calibration curve from which cell numbers can be determined. Having set up these reference wells, MTS and PMS from the MTT proliferation kit (Promega, CellTiter 96 Aqueous non-radioactive cell proliferation assay) are thawed in a 37° C. waterbath and 100 μl of PMS solution are added to 2 ml of MTS solution. 20 μl of this mixture are added to each well of the assay plates and incubated at 37° C. for 3-4 h. 25 μl of 10% sodium dodecylsulfate in water are added to each well prior to measurement E492 in an ELISA Reader.
# Using graphical evaluations as shown in FIGS. 17 and 18 based on calculations of the dose-response relationship using the program GraphPad the following EC50 values were determined on the basis of MTT-assay data: […]
Molecule,EC50 values,EC50
GGTYSCHFGGLTWVCKPQGG,no activity,
GGTYSCHF-(Als)-LTWVCKKQGG [SEQ ID NO 8],,5 µM
GGTYSCHF-(Als)-LTWVCKPQGG [SEQ ID NO 7],,5.26 µM
